Measurements taken from patent US20180179283A1 (ADICET BIO, published 2018).

Legend:
[1] = target: T1, HLA-A2/P68 peptide on T2 cells; test: FACS, T2 + P68 peptide
T1 construct: also called p68-DDX5

[2] = target: HLA-A2/MART1(26) control peptide on T2 cells (human); test: FACS, T2 + MART1 peptide
[3] = target: HLA-A2/MAGE-A4-A2 peptide on T2 cells (human); test: FACS (MFI) vs native peptide, Ala-mutant peptide on T2 cells
[4] = target: HLA-A2/MAGE-A4-A4 peptide on T2 cells (human); test: as above
[5] = target: HLA-A2/MAGE-A4-A5 peptide on T2 cells (human); test: as above
[6] = target: HLA-A2/MAGE-A4-A6 peptide on T2 cells (human); test: as above
[7] = target: HLA-A2/MAGE-A4-A7 peptide on T2 cells (human); test: as above

B1: 905-2-D7 TCR-like antibody (antibody, mouse IgG1, kappa, V domains shown)
VH: QVQLKESGPGLVAPSQSLSITCTVSGFSLTSYGVHWVRQPPGKGLEWLGVIWAGGTTNYNSALMSRLSISRDNSKSQVFLEMNSLQTDDTAIYYCARDGHFHFDFWGQGTTLTVSS
VL: DIQMTQSPASLSVSVGETVTITCRASDIIYSNLAWYQQKQGKSPQLLVYAATNLAAGVPSRFSGSGSGTQYSLKINSLQSEDFGTYYCQHFWGSSISFGSGTKLEIKR
notes: also called Tyr D7
binding result [1]: no binding | binding result [2]: no binding

B2: 906-11-D11 TCR-like antibody (antibody, mouse IgG1, kappa, V domains shown)
VH: not shown
VL: DIQMTQSPSSLSASLGGKVTITCKASQDIHNYIAWYQHKPVKGPRLLIHYTSTLQPGTPSRFSGSGSGRDYSFSISNLEPEDIATYYCLQYDNLWTFGGGTKLEIKR
notes: also called Tyr D11
binding result [1]: no binding | binding result [2]: no binding

B3: C106B9 TCR-like antibody (antibody, mouse IgG1, kappa, V domains shown)
VH: QVQLQQSGGEVMKPGASVKLSCKATGYTFTGYWIEWIKQRPGHGLEWIGEILPGSGGTNYNEKFKGKATFTAHTSSNTAYMQLSSLTTEDSAIYYCARDSNSFTYWGQGTLVTVSS
VL: QIVLTQSPAIMSASPGEKVTITCSVSSSVDYIHWFQQKPGTSPKFWIYSTSILASGVPARFSGSGSGTSYSLTISRMEAEDAATYYCQQRSSYPPTFGSGTKLEIKR
notes: also called MAGE-A4 C106B9
% decrease in binding [3]: 33% | % decrease in binding [4]: 90% | % decrease in binding [5]: 90% | % decrease in binding [6]: 90% | % decrease in binding [7]: 90%
